Measured values taken from publication PMC4476040.

Target: N-HGbRL, the N-terminal globin domain of HGbRL from Methylacidiphilum infernorum (Methylacidiphilum infernorum)
Test: crystal structure; open, imidazole-bound form; space group C2, two subunits in the asymmetric unit; crystals at 20 °C in 3.5 M 1,6-hexanediol, 0.1 M sodium citrate pH 5.6; 1.94 Å

## N-HGbRL, the N-terminal globin domain of HGbRL from Methylacidiphilum infernorum (domain or fragment)
  stoichiometry N: 2
